The values that follow come from article PMC6186450.

For the assay, the target named is Human Plasma Fibronectin (human). As to the kind of experiment: ITC. On the technique in general: In ITC the heat of successive injections is recorded.

As a reminder, the Kd is the free concentration of one partner at which half of the binding sites on the other are occupied at equilibrium, for simple one-to-one binding. The low end stands for a tighter complex, the high end for a looser complex. Consider 40 kDa PEG-FUD (peptide), for which the Kd turned out to be 14.7 nM and the dH is -32.5 kcal/mol.

On to 10 kDa PEG-FUD (peptide), for which the Kd was 4.6 nM.

“Functional Upstream Domain (FUD) peptide” returned a Kd of 6 nM. The Kd values of the last two substances are within 1.5-fold of each other.

One may read the stoichiometry N as a count of units in the complex or per binding partner. Consider 20 kDa PEG-FUD (peptide), for which the equilibrium dissociation constant (Kd) turned out to be 10 nM and the stoichiometry N was 1.63.
